Data: patent US20220090139A1

Biological target: integrin molecules on human cells (human)
Experiment: cell-based or functional assay

B1: RGD-Hoc, P18056 1-376 (protein)
chain: CDCRGDCFCSAMTFTVDITPKTPTGVIDETKQFTATPSGQTGGGTITYAWSVDNVPQDGAEATFSYVLKGPAGQKTIKVVATNTLSEGGPETAEATTTITVKNKTQTTTLAVTPASPAAGVIGTPVQFTAALASQPDGASATYQWYVDDSQVGGETNSTFSYTPTTSGVKRIKCVAQVTATDYDALSVTSNEVSLTVNKKTMNPQVTLTPPSINVQQDASATFTANVTGAPEEAQITYSWKKDSSPVEGSTNVYTVDTSSVGSQTIEVTATVTAADYNPVTVTKTGNVTVTAKVAPEPEGELPYVHPLPHRSSAYIWCGWWVMDEIQKMTEEGKDWKTDDPDSKYYLHRYTLQKMMKDYPEVDVQESRNGYIIHKTALETGIIYTYPKLAAALEHHHHHH
luciferase activity: 5 fold
